Read-outs that look alike come from different tables or passages of the source.
Key:
Assay in all cases: SPR
R07 [1] = target: R07
R17 [2] = target: R17
S15 [3] = target: S15
S02 [4] = target: S02
S08 [5] = target: S08
R10 [6] = target: R10
R14 [7] = target: R14
S10 [8] = target: S10
R07 [9] = target: R07; remark: listed apart in the source
R17 [10] = target: R17; remark: listed apart in the source
S15 [11] = target: S15; remark: listed apart in the source
S02 [12] = target: S02; remark: listed apart in the source
S08 [13] = target: S08; remark: listed apart in the source
R10 [14] = target: R10; remark: listed apart in the source
R14 [15] = target: R14; remark: listed apart in the source
S10 [16] = target: S10; remark: listed apart in the source
[17] = target: T1, HCoV-229E S ectodomain (17–1115 aa), 229E S trimer (human coronavirus 229E, UniProt P15423 17-1115)
T1 chain: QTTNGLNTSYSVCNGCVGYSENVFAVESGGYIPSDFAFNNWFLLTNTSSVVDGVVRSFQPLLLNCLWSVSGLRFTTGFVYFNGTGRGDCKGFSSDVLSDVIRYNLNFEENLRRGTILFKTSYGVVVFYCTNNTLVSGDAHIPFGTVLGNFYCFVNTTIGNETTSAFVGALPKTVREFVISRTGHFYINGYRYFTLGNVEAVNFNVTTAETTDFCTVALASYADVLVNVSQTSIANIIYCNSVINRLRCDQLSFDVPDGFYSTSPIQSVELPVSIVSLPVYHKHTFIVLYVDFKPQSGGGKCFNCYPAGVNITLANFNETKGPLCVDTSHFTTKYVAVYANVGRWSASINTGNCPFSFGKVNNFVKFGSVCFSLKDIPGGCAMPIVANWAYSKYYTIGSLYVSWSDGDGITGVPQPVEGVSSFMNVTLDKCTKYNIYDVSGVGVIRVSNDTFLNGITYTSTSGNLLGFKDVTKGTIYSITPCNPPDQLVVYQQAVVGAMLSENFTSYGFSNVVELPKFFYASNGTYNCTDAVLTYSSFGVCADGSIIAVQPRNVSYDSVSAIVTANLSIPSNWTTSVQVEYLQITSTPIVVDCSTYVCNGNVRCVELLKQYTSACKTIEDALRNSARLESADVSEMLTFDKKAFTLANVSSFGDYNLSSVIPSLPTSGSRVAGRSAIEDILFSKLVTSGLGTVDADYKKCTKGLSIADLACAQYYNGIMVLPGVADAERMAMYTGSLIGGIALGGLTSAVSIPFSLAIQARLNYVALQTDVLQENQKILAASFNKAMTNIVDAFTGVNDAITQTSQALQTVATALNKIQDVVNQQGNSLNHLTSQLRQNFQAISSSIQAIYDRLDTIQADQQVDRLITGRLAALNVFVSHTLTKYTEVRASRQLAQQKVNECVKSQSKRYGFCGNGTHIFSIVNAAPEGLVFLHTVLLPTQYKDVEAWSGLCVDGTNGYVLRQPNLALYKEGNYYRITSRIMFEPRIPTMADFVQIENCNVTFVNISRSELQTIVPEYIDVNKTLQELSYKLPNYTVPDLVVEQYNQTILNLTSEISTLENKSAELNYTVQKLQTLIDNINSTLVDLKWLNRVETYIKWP

[18] = target: T2, HCoV-229E S2 subunit (575–1115 aa) (human coronavirus 229E, UniProt P15423 575-1115)
T2 chain: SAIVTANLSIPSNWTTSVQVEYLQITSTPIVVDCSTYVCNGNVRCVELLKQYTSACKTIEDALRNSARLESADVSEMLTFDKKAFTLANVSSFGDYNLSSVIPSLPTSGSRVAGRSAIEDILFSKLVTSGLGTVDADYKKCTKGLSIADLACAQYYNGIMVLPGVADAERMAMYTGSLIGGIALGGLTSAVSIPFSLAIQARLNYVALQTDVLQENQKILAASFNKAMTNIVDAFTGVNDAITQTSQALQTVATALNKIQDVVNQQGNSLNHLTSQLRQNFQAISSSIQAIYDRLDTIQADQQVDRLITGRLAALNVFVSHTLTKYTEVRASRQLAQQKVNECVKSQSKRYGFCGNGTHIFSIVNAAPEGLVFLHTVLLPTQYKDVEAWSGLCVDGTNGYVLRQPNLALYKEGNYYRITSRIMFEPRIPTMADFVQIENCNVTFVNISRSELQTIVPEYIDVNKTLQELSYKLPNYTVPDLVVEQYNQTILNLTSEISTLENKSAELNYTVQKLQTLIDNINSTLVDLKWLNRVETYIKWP

[19] = target: T3, HCoV-NL63 S ectodomain (16–1291 aa) (human coronavirus NL63, UniProt Q6Q1S2 16-1291)
T3 chain: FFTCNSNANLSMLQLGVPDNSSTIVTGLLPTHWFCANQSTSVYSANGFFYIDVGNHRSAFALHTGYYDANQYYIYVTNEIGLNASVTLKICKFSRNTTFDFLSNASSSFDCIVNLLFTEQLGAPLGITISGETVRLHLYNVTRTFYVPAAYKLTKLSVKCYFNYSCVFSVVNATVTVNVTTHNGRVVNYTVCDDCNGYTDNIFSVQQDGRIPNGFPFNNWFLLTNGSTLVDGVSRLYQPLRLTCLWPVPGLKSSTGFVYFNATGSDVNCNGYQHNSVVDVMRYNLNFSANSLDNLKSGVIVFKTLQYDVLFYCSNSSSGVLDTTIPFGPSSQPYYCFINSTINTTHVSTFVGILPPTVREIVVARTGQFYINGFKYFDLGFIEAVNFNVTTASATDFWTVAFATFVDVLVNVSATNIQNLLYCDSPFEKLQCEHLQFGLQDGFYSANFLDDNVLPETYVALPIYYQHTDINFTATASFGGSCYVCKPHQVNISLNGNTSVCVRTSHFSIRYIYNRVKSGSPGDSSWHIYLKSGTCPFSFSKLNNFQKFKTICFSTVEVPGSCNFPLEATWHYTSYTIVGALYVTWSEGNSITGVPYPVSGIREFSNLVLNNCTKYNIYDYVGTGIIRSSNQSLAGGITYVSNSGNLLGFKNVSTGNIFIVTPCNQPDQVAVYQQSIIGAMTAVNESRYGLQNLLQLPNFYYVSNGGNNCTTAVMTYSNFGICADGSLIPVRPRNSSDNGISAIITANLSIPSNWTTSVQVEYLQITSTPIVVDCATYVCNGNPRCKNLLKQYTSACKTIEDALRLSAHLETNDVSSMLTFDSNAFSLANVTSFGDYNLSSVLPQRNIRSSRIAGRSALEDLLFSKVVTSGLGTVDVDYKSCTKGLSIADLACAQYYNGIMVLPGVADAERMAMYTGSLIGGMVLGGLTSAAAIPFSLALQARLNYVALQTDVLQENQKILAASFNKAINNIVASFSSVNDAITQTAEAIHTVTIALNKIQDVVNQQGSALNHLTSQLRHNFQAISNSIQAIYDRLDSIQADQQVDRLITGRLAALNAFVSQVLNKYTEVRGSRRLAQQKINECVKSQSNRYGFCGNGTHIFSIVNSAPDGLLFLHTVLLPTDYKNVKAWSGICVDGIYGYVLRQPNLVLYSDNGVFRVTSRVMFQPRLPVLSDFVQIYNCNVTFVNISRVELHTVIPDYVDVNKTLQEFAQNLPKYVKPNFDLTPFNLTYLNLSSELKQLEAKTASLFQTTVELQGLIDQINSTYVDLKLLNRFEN

[20] = target: T4, HCoV-229E S1 subunit (17–560 aa) (human coronavirus 229E, UniProt P15423 17-560)
T4 chain: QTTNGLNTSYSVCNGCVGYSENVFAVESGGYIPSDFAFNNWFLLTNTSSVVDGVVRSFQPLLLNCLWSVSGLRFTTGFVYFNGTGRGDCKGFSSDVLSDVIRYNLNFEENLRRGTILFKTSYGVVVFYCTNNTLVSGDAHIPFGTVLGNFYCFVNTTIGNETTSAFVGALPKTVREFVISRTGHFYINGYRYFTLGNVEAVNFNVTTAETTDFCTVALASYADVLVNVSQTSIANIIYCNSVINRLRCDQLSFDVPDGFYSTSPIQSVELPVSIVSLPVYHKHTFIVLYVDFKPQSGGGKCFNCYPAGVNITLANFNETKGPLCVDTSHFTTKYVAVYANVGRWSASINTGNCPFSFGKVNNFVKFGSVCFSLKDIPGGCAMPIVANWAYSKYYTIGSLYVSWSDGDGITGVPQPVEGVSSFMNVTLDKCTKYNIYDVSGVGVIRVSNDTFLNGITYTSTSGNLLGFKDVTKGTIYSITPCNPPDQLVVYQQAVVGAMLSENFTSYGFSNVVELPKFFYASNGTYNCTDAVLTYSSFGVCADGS

[21] = target: T5, HCoV-229E NTD (17–265 aa) (human coronavirus 229E, UniProt P15423 17-265)
T5 chain: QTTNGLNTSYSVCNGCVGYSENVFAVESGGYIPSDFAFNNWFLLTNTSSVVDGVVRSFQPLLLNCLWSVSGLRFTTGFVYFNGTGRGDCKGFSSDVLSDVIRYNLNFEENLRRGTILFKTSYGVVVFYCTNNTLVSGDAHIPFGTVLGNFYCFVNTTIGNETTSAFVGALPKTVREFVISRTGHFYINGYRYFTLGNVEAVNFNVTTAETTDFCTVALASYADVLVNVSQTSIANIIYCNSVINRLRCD

[22] = target: T1, HCoV-229E S ectodomain (17–1115 aa), …
[23] = target: T4, HCoV-229E S1 subunit (17–560 aa)
[24] = target: T5, HCoV-229E NTD (17–265 aa)
[25] = target: T3, HCoV-NL63 S ectodomain (16–1291 aa)

B1: HCoV-229E RBD (294–435 aa) (domain or fragment)
chain: PVYHKHTFIVLYVDFKPQSGGGKCFNCYPAGVNITLANFNETKGPLCVDTSHFTTKYVAVYANVGRWSASINTGNCPFSFGKVNNFVKFGSVCFSLKDIPGGCAMPIVANWAYSKYYTIGSLYVSWSDGDGITGVPQPVEGV
Kd (R07 [1]): 2 nM
Kd (R17 [2]): 0.9 nM
Kd (S15 [3]): 0.3 nM
Kd (S02 [4]): 0.5 nM
Kd (S08 [5]): 3 nM
Kd (R10 [6]): 0.3 nM
Kd (R14 [7]): 0.8 nM
Kd (S10 [8]): 0.5 nM
koff (R07 [9]): 0.0016 s⁻¹
Kd (R17 [10]): 0.92 nM
koff (R17 [10]): 0.0025 s⁻¹
Kd (S15 [11]): 0.26 nM
koff (S15 [11]): 0.00097 s⁻¹
Kd (S02 [12]): 0.49 nM
koff (S02 [12]): 0.0018 s⁻¹
Kd (S08 [13]): 2.9 nM
koff (S08 [13]): 0.0053 s⁻¹
Kd (R10 [14]): 0.32 nM
koff (R10 [14]): 0.0019 s⁻¹
Kd (R14 [15]): 0.81 nM
koff (R14 [15]): 0.003 s⁻¹
Kd (S10 [16]): 0.51 nM
koff (S10 [16]): 0.0031 s⁻¹

B2: Fab F12 (Fab, V domains shown)
VH: EVQLVESGGGLVQPGGSLRLSCAASGFNLYYYYIHWVRQAPGKGLEWVASISPYSGYTSYADSVKGRFTISADTSKNTAYLQMNSLRAEDTAVYYCARAFSSYYSHSVGLDYWGQGTLVTVSS
VL: DIQMTQSPSSLSASVGDRVTITCRASQSVSSAVAWYQQKPGKAPKLLIYSASSLYSGVPSRFSGSRSGTDFTLTISSLQPEDFATYYCQQHSWGGLITFGQGTKVEIK
koff [17]: 0.00091 s⁻¹
koff [18]: 2.7e-05 s⁻¹

B3: Fab F07 (Fab, V domains shown)
VH: EVQLVESGGGLVQPGGSLRLSCAASGFNISYYSIHWVRQAPGKGLEWVASIYPYYGYTSYADSVKGRFTISADTSKNTAYLQMNSLRAEDTAVYYCARSSGYYHYPYSHSGLDYWGQGTLVTVSS
VL: DIQMTQSPSSLSASVGDRVTITCRASQSVSSAVAWYQQKPGKAPKLLIYSASSLYSGVPSRFSGSRSGTDFTLTISSLQPEDFATYYCQQSYYWGGPITFGQGTKVEIK
Kd [19]: 6400 nM
koff [17]: 0.00035 s⁻¹
Kd [20]: 0.7 nM
Kd [21]: 3.1 nM
Kd [22]: 1.4 nM
koff [23]: 0.00036 s⁻¹
koff [24]: 0.00053 s⁻¹
Kd [25]: 3900 nM

— publication PMC9636267 (2022)
